From PMC6079076, “Structure of the mouse TRPC4 ion channel” (Nature Communications, 2018) come the findings set out here.

The data set deals with the molecule itself. The data set can be described thus: cryo-EM structure; single-particle cryo-EM of purified TRPC4 in digitonin, 30 mM HEPES, 150 mM NaCl, 1 mM DTT, pH 7.5; apo state; C4 symmetry imposed; 3.3 Å.

B1: mouse TRPC4 (residues a.a. 1–758, excluding a.a. 759–974) (domain or fragment, UniProt Q9QUQ5 1-758, looked up)
chain: MAQFYYKRNVNAPYRDRIPLRIVRAESELSPSEKAYLNAVEKGDYASVKKSLEEAEIYFKININCIDPLGRTALLIAIENENLELIELLLSFNVYVGDALLHAIRKEVVGAVELLLNHKKPSGEKQVPPILLDKQFSEFTPDITPIILAAHTNNYEIIKLLVQKGVSVPRPHEVRCNCVECVSSSDVDSLRHSRSRLNIYKALASPSLIALSSEDPFLTAFQLSWELQELSKVENEFKSEYEELSRQCKQFAKDLLDQTRSSRELEIILNYRDDNSLIEEQSGNDLARLKLAIKYRQKEFVAQPNCQQLLASRWYDEFPGWRRRHWAVKMVTCFIIGLLFPVFSVCYLIAPKSPLGLFIRKPFIKFICHTASYLTFLFLLLLASQHIDRSDLNRQGPPPTIVEWMILPWVLGFIWGEIKQMWDGGLQDYIHDWWNLMDFVMNSLYLATISLKIVAFVKYSALNPRESWDMWHPTLVAEALFAIANIFSSLRLISLFTANSHLGPLQISLGRMLLDILKFLFIYCLVLLAFANGLNQLYFYYEETKGLSCKGIRCEKQNNAFSTLFETLQSLFWSIFGLINLYVTNVKAQHEFTEFVGATMFGTYNVISLVVLLNMLIAMMNNSYQLIADHADIEWKFARTKLWMSYFEEGGTLPTPFNVIPSPKSLWYLVKWIWTHLCKKKMRRKPESFGTIGRRAADNLRRHHQYQEVMRNLVKRYVAAMIREAKTEEGLTEENVKELKQDISSFRFEVLGLLRGSK
notes: mouse TRPC4, a.a; 1-758 of 974 (a.a. 759-974 left out); MBP tag removed with PreScission protease; also called mTRPC4; truncated TRPC4; source: HEK293S GnTI- cells, BacMam baculovirus, purified (amylose resin, Superose 6); not shown: MBP, N-terminal, cleaved
For orientation: stoichiometry N means the number of molecules, sites or subunits per partner or assembly. On to B1, for which the “stoichiometry N” value was determined as 4.
